# Molecular target: cell surface of 293 AAV cells (human)
# Assay: cell binding on ice for 1 h at 200000 TU/cell; unbound particles recovered from the medium and titrated on TG1 E. coli by colony counting; relative to control
row,Substance,binding efficiency (percentage of vectors bound to the cell surface)
1,M13.PAAV vector (non-targeted phagemid/AAV particle lacking RGD4C) (from UniProt P69168 19-424),7.1%
2,RGD.PAAV vector (phagemid/AAV particle displaying the RGD4C targeting peptide on the pIII minor coat protein),58.2%
